Key:
Assay in all cases: SPR
[1] = molecular target: human monoclonal antibody R5.016 (human)
[2] = molecular target: monoclonal antibody 9AD4 (mouse)
[3] = molecular target: human monoclonal antibody R5.034 (human)
human monoclonal antibody R5.034 (human), sequence (heavy, as listed by the source, chain 1 of 2): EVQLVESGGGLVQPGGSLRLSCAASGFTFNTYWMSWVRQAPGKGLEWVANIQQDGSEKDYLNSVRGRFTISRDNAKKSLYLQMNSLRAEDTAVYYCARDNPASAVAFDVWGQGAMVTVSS
human monoclonal antibody R5.034 (human), sequence (light, as listed by the source, chain 2 of 2): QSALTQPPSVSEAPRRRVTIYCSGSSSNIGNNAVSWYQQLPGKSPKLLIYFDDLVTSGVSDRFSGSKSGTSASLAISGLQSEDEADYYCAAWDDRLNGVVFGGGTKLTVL

monoclonal antibody 9AD4 (mouse), sequence (light, as listed by the source, chain 2 of 2, other chains not shown): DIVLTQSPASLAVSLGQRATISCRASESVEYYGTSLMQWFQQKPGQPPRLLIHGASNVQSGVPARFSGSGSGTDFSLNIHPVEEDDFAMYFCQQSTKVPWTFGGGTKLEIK
human monoclonal antibody R5.016 (human), sequence (heavy, as listed by the source, chain 1 of 2): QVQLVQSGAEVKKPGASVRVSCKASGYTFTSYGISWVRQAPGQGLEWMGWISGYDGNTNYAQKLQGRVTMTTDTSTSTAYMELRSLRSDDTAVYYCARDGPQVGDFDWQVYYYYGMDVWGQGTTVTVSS
human monoclonal antibody R5.016 (human), sequence (light, as listed by the source, chain 2 of 2): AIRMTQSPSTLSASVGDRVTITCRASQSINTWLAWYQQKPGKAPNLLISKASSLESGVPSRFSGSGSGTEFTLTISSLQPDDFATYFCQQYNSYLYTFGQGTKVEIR

## PfRH5 (from UniProt Q8IFM5 25-526) (natural protein)
[1]
  Kd: 2.4 nM
[2]
  Kd: 1.6 nM
[3]
  Kd: 0.094 nM

Source: paper PMC11473951
